# Source: article PMC9776664, “Crystal structure of the feruloyl esterase from Lentilactobacillus buchneri reveals a novel homodimeric state” (Frontiers in Microbiology, 2022)
# B1: feruloyl esterase (LbFAE) from Lentilactobacillus buchneri LN 4017, wild type (enzyme, UniProt D7RU28 1-260, looked up)
# chain: MIKFVTTEINGLTLRGTAHVPDGEPGQQFPTVLMFHGFGAVRDEGFRLFIQMSNRLMENGIAAVRFDFGCHGESDGEFEDFTFSQELNEGSALIDAVKSMSFVDSTKFSLLGESLGSVAASIVAGKRSTELTSLCMWSPAASFLDEILNDHTLQGKTVDNVEKDGYFDFYGLKLGKAFFDDLKNINIFDNAKKYQGPVKIVYGTNDFIPEKYSHKYMDGYENGELVIVQDGDHGWQSVPSRKRILDETMKFFRKTLLEAK
# notes: Feruloyl esterase annotated as type-A FAE (faeA) from L. buchneri silage additive strain LN4017 (ATCC PTA-6138); synthetic gene amplified with primers from the ATG start to the stop codon; the monomer structure includes 260 amino acids; Cloned into pNIC28-Bsa4 by LIC; Theoretical mass with His6 tag and TEV site 31.6 kDa; also called faeA; source: E. coli BL21(DE3)-T1, purified (Ni-NTA, SEC)
# Columns and labels:
# [1] = target: T1, LbFAE (Lentilactobacillus buchneri, UniProt D7RU28); assay: X-ray crystal structure, […] Å, wild-type crystal soaked with FA; type: binding; details: active site; crystal grown with 0.1 M sodium cacodylate pH 6.5, 0.2 M calcium acetate, PEG 8000
# T1 construct: gene faeA; synthetic gene in pNIC28-Bsa4, E. coli BL21(DE3)-T1; Ni-NTA and SEC; homodimer about 60 kDa; monomer model 260 residues; catalytic triad Ser114, Asp206, His233
# [2] = substrate: COc1cc(/C=C/C(=O)Oc2ccc([N+](=O)[O-])cc2)ccc1O; assay: spectrophotometric assay, Michaelis-Menten fit; type: biochemical, Lentilactobacillus buchneri; details: pH 6.5, 40 °C, free enzyme
# Excerpt: spectrophotometric assay, Michaelis-Menten fit on LbFAE
# [3] = target: the molecule itself; assay: SEC; HiLoad 16/60 Superdex 200 prep grade, 20 mM Hepes pH 7.5, 150 mM NaCl, 1 ml/min, 4°C; calibrated with ferritin, aldolase, conalbumin, ribonuclease A
# [4] = substrate: COC(=O)/C=C/c1ccc(O)c(OC)c1; assay: HPLC of released ferulic acid, Michaelis-Menten fit; type: biochemical, Lentilactobacillus buchneri; details: pH 6.5, 40 °C, free enzyme
# Excerpt: HPLC of released ferulic acid, Michaelis-Menten fit on LbFAE
Molecule,"X-ray crystal structure, 1.90 Å, wild-type crystal soaked with FA [1]",Km [2],Vmax [2],kcat [2],kcat/Km [2],stoichiometry N [3],Km [4],Vmax [4],kcat [4],kcat/Km [4]
"COc1cc(/C=C/C(=O)O)ccc1O [FA, 4-hydroxy-3-methoxy-cinnamic acid]","only FA (i.e., the product) resulted in a complex with LbFAE",,,,,,,,,
B1,,900 µM,6.9 µmol/min/mg,6.7 s⁻¹,7540 M⁻¹ s⁻¹,2,65 µM,6.57 µmol/min/mg,16.3 s⁻¹,252000 M⁻¹ s⁻¹
